# Results reported in US10087225B2, “Formulation of MK2 inhibitor peptides” (MOERAE MATRIX, INC., priority 2015, dated 2018).
# Columns and labels:
# Assay in all cases: Kinase Profiling Assay
# ACK1(h) = ACK1(h) (Homo sapiens, UniProt Q07912); type: biochemical; conditions: 100 μM
# CDK6/cyclinD3(h) = CDK6/cyclinD3(h) (Homo sapiens, UniProt Q00534); type: biochemical; conditions: 100 μM
# cKit(V560G)(h) = cKit(V560G)(h) (Homo sapiens, UniProt P10721, V560G); type: biochemical
# Fes(h) = Fes(h) (Homo sapiens, UniProt P07332); type: biochemical; conditions: 100 μM
# Fyn(h) = Fyn(h) (Homo sapiens, UniProt P06241); type: biochemical; conditions: 100 μM
# JAK3(h) = molecular target: T1, JAK3(h) (Homo sapiens, UniProt P52333); type: biochemical
# T1 sequence (P52333 1-1124): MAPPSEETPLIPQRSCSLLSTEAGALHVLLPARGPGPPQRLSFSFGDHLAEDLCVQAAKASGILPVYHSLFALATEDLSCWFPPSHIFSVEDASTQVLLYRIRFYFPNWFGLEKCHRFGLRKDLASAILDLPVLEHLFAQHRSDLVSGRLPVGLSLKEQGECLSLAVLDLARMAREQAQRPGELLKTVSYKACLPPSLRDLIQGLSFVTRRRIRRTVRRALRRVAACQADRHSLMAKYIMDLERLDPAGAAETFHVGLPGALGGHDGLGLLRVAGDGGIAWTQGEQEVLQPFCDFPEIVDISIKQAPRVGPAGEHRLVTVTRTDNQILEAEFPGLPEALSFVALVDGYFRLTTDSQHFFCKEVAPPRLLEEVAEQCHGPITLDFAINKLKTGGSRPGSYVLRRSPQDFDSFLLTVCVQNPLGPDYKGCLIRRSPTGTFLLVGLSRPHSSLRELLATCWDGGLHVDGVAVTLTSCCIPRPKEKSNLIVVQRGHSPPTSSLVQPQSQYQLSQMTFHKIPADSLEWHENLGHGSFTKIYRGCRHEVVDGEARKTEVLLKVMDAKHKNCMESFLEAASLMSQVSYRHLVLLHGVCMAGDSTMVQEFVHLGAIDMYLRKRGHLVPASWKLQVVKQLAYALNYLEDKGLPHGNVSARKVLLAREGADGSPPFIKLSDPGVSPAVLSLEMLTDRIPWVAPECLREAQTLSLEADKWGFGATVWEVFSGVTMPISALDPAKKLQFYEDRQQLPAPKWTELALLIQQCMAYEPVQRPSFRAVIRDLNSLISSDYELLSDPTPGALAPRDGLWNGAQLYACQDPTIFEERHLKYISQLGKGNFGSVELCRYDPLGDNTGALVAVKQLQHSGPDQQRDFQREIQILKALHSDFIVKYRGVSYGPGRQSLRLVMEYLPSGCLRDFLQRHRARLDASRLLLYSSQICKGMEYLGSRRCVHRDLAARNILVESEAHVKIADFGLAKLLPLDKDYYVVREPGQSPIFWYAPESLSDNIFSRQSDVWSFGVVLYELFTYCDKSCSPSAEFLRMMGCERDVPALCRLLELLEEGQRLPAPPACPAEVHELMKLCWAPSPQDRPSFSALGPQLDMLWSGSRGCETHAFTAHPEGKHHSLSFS
# MLCK(h) = type: biochemical, human; conditions: 100 μM
# MST3(h) = MST3(h) (Homo sapiens, UniProt Q9Y6E0); type: biochemical; conditions: 100 μM
# mTOR(h) = mTOR(h) (Homo sapiens, UniProt P42345); type: biochemical; conditions: 100 μM
# PAR-1Bα(h) = PAR-1Bα(h) (Homo sapiens, UniProt Q7KZI7); type: biochemical; conditions: 100 μM
# Pim-1(h) = Pim-1(h) (Homo sapiens, UniProt P11309); type: biochemical; conditions: 100 μM
# PKBα(h) = PKBα(h) (Homo sapiens, UniProt P31749); type: biochemical; conditions: 100 μM
# PKCη(h) = PKCη(h) (Homo sapiens, UniProt P24723); type: biochemical; conditions: 100 μM
# Pyk2(h) = Pyk2(h) (Homo sapiens, UniProt Q14289); type: biochemical; conditions: 100 μM
# Snk(h) = Snk(h) (Homo sapiens, UniProt Q9NYY3); type: biochemical
# TAO3(h) = molecular target: T2, TAO3(h) (Homo sapiens, UniProt Q9H2K8); type: biochemical
# T2 sequence (Q9H2K8 1-898): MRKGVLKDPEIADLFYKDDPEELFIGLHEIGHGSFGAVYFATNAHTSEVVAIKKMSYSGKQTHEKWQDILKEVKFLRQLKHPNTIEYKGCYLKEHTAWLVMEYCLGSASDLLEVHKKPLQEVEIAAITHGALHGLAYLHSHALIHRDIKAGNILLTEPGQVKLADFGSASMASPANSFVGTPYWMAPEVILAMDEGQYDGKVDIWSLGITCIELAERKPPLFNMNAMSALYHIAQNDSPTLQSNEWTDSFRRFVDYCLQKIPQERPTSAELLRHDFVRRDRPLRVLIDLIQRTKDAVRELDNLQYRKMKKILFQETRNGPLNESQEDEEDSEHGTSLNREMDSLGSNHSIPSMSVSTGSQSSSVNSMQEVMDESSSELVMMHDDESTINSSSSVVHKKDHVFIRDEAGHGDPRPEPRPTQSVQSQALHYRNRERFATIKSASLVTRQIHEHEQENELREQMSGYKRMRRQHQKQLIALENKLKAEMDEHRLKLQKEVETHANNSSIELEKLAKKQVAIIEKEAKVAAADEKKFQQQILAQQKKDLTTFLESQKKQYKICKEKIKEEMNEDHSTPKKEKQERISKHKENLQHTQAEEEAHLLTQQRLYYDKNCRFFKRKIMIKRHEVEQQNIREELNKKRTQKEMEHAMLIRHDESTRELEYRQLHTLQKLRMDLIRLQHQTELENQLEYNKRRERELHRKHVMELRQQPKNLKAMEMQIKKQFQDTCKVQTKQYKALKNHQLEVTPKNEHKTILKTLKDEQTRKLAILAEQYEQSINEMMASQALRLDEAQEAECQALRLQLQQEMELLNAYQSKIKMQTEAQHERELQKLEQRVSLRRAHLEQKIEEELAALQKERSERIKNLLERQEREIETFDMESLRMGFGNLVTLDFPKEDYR
# Chain of Fes(h) (P07332 whole entry): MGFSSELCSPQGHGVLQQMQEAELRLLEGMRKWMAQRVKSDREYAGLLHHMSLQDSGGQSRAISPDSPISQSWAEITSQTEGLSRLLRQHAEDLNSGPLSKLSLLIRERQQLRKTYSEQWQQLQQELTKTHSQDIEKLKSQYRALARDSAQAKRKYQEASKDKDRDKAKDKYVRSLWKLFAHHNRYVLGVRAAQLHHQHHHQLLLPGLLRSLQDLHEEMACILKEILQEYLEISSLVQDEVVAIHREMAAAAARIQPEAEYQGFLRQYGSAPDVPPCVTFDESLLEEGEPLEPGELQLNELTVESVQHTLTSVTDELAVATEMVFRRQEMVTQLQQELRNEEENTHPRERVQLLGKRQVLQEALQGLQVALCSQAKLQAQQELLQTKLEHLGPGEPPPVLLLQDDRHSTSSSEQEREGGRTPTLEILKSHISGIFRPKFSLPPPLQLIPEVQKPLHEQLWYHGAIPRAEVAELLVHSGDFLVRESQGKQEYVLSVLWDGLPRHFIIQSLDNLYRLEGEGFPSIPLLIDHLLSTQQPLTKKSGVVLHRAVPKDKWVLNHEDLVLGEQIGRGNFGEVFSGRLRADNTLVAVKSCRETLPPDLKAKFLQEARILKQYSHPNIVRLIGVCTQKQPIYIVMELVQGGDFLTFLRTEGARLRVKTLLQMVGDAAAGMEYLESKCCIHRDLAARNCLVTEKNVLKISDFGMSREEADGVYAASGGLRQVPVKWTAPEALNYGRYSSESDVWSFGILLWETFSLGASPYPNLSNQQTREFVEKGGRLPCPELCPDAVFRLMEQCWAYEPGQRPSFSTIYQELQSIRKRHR
# Chain of PAR-1Bα(h) (Q7KZI7 1-725 isoform Q7KZI7-4): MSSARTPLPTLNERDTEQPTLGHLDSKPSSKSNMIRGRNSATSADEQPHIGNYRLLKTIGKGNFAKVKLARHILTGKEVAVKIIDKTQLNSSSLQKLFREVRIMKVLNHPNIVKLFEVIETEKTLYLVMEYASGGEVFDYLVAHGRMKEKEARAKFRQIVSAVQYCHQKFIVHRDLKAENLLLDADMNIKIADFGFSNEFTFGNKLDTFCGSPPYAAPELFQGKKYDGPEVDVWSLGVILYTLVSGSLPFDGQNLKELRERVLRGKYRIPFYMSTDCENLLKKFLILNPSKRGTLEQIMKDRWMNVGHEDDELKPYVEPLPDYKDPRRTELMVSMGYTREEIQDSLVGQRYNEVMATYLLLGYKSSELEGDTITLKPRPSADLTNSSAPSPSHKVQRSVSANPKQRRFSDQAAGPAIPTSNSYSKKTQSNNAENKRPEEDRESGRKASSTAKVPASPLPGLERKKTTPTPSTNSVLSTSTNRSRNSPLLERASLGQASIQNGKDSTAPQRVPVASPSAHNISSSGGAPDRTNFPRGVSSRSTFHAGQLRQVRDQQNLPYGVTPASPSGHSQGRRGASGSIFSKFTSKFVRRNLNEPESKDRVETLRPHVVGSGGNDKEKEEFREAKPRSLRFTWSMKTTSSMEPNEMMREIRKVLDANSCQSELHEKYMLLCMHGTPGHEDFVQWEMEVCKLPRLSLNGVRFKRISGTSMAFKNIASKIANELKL
# Chain of ACK1(h) (Q07912 whole entry): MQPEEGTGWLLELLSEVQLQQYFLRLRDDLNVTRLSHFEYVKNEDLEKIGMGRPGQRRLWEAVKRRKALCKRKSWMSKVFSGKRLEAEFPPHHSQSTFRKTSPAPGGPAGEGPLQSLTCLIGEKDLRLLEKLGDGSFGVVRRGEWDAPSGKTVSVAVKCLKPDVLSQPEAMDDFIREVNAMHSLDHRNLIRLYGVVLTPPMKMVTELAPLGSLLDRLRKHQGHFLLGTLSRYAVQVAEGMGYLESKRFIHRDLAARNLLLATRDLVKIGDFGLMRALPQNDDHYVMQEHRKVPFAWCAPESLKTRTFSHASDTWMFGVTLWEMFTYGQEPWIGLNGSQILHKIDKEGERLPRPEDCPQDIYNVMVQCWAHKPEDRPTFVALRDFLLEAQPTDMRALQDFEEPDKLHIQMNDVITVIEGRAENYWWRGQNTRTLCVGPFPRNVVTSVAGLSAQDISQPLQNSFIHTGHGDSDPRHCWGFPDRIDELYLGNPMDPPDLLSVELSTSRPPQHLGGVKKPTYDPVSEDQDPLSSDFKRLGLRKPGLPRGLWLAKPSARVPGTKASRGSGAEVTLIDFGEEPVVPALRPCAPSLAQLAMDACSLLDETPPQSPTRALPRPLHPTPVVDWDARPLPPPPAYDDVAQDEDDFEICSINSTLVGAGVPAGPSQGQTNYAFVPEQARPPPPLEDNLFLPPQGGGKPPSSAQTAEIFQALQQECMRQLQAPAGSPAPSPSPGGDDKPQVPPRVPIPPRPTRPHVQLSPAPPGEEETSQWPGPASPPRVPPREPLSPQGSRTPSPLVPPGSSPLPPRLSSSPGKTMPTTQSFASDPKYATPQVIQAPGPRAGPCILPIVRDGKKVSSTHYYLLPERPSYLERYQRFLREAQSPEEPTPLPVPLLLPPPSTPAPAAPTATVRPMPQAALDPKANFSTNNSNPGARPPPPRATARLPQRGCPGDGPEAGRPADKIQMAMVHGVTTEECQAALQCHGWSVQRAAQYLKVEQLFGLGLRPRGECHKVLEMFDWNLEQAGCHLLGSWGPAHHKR
# Chain of CDK6/cyclinD3(h) (Q00534 whole entry): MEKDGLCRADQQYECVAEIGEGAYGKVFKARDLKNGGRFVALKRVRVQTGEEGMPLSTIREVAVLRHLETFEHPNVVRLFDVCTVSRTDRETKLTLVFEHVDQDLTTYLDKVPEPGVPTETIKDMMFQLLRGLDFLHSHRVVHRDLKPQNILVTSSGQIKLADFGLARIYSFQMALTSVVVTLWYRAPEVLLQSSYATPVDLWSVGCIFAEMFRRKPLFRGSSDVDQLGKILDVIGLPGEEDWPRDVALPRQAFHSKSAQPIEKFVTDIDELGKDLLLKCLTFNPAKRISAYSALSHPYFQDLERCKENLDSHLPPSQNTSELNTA
# Chain of CDK6/cyclinD3(h) (P30281 whole entry partner): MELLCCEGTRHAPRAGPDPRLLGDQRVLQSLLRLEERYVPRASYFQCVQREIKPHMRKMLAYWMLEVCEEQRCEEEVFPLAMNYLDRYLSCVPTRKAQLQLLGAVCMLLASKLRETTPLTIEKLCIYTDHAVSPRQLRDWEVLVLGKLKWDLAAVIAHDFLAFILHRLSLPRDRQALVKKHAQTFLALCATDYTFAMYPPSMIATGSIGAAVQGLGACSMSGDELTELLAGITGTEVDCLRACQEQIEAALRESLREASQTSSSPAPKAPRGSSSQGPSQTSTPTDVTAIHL
# Chain of PKBα(h) (P31749 whole entry): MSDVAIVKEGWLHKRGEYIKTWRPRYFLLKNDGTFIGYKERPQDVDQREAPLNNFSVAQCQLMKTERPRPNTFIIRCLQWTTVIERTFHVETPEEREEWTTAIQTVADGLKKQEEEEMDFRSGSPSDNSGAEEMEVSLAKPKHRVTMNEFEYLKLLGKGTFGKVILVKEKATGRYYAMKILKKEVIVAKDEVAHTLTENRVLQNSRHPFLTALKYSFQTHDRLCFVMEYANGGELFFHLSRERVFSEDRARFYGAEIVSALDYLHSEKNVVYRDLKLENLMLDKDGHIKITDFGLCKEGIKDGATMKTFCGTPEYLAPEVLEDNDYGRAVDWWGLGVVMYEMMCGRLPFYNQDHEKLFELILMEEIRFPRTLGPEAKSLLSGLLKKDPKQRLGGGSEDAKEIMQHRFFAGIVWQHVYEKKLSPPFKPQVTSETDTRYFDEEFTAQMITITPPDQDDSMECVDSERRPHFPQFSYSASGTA
# Chain of MST3(h) (Q9Y6E0 whole entry): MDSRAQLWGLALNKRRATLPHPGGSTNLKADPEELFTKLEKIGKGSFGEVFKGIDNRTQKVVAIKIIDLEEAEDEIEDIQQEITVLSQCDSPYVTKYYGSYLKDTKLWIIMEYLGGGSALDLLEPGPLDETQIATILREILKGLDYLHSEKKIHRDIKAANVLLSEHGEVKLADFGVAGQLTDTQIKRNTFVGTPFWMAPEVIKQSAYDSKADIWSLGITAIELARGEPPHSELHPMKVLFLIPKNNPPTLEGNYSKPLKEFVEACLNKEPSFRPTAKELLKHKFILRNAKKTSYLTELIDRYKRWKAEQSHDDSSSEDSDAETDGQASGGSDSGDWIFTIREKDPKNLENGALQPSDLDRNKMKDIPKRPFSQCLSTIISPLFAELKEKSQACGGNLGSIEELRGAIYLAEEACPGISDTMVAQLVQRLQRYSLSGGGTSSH
# Chain of Snk(h) (Q9NYY3 whole entry): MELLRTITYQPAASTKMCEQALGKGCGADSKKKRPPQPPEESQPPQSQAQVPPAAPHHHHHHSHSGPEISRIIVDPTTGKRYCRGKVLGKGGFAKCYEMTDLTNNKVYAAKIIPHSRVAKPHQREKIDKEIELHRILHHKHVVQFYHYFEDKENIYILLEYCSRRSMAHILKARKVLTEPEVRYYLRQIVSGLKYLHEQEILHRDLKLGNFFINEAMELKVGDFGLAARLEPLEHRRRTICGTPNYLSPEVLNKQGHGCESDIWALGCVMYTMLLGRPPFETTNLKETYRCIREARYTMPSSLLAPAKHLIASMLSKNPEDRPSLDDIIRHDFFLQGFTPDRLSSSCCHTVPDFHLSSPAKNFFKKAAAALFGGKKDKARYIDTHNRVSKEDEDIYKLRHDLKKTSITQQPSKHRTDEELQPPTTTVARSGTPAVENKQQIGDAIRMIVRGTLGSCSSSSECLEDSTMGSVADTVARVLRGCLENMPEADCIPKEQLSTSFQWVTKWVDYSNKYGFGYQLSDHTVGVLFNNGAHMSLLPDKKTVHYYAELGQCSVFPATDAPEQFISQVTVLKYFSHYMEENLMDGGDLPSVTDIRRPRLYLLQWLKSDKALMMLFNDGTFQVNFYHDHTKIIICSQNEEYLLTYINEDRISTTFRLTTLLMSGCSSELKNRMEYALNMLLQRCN
Substance,% activity (ACK1(h)) [%],% activity (CDK6/cyclinD3(h)) [%],% activity (cKit(V560G)(h); 100 μM) [%],% activity (Fes(h)) [%],% activity (Fyn(h)) [%],% activity (JAK3(h); 100 μM) [%],% activity (MLCK(h)) [%],% activity (MST3(h)) [%],% activity (mTOR(h)) [%],% activity (PAR-1Bα(h)) [%],% activity (Pim-1(h)) [%],% activity (PKBα(h)) [%],% activity (PKCη(h)) [%],% activity (Pyk2(h)) [%],% activity (Snk(h); 100 μM) [%],% activity (TAO3(h); 100 μM) [%],activity at 100 µM (cKit(V560G)(h)) [%],activity at 100 µM (JAK3(h)) [%],activity at 100 µM (Snk(h)) [%],activity at 100 µM (TAO3(h)) [%]
HRRIKAWLKKIKALARQLGVAA (Mammalian) [MMI-0500],64,23,198,23,83,95,0,4,135,97,0,30,45,46,122,12,–,–,–,–
YARAAARQARAKALNRQLGVA (Mammalian) [MMI-0200],97,100,–,74,75,–,103,95,110,110,18,110,101,127,–,–,–,–,–,–
H-YARAAARQARAKALARQLGVAA-OH [MMI-0100],–,–,–,–,–,–,–,–,–,–,–,–,–,–,–,–,94,150,94,45
